Here are results for 1 molecule from publication PMC4275181, “Evolution of RNA-Protein Interactions: Non-Specific Binding Led to RNA Splicing Activity of Fungal Mitochondrial Tyrosyl-tRNA Synthetases”.

In one data set the target is T1, CYT-18 NTDs (Neurospora crassa, UniProt P12063 33-417).
T1 sequence: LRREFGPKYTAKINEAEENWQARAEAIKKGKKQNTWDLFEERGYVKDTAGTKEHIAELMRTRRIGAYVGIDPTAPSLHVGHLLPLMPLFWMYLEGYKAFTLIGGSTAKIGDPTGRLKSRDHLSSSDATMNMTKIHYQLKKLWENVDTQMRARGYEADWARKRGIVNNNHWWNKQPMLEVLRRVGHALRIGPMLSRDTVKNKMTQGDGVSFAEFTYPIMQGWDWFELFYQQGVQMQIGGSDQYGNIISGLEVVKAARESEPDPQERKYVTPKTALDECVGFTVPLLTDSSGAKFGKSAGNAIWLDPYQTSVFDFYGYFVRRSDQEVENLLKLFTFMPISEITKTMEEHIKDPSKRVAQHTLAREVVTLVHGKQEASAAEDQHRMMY
Put plainly: filter binding; 25C; 100 mM KCl, 5 mM MgCl2, 20 mM Tris-HCl pH 7.5, 5 mM DTT, 0.1 mg/ml BSA, 10% glycerol, 5 pM RNA, 30 min, 25C or 37C; nitrocellulose/nylon filter. As to conditions: protein: recombinant; tags: N-terminal 6xHis, TEV-cleaved; extra N-terminal Gly; chain copies: 2; label: 5'-32P.

Another data set deals with T2, Sc CTD (Saccharomyces cerevisiae, UniProt P48527 414-492).
T2 sequence: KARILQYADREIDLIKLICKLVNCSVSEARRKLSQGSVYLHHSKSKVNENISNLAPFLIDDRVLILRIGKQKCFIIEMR
Briefly: filter binding; 25C; n=1.6; 100 mM KCl, 5 mM MgCl2, 20 mM Tris-HCl pH 7.5, 5 mM DTT, 0.1 mg/ml BSA, 10% glycerol, 5 pM RNA, 30 min, 25C or 37C; nitrocellulose/nylon filter. The conditions noted are these: protein: recombinant; label: 5'-32P.

Regarding UUUUUUUUUUUUUUUUUUUUUUUUUUUUUU (ssRNA) [poly(U)30], in the data set with CYT-18 NTDs, the binding result is “no binding”. Moreover, the “apparent K (half saturation)” value in the data set with Sc CTD turned out to be 1000 nM.
